Results on two molecules are retold here after article PMC2962499 (The Journal of Biological Chemistry, 2010).

Assay [1] concerns the target T1, SpRpn12 fragment (residues 1-250) (Schizosaccharomyces pombe, UniProt P50524 1-250).
T1 sequence (looked up): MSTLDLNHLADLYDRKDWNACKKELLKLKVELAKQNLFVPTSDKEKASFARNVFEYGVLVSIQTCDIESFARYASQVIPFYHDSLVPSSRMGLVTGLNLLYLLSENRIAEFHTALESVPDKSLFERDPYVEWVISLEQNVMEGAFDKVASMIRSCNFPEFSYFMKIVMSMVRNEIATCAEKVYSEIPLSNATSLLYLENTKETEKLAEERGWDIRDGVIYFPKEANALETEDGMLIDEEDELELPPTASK
The experiment in a line: NMR titration.

A further assay deals with monoubiquitin (bovine) (bovine, UniProt P0CG53 1-76). The experiment in a line: ITC.

B1: SpRpn10 VWA domain (residues 1-195) (domain or fragment, Schizosaccharomyces pombe, UniProt O94444 1-195, looked up)
chain: MVLEATMILIDNSEWMINGDYIPTRFEAQKDTVHMIFNQKINDNPENMCGLMTIGDNSPQVLSTLTRDYGKFLSAMHDLPVRGNAKFGDGIQIAQLALKHRENKIQRQRIVAFVGSPIVEDEKNLIRLAKRMKKNNVAIDIIHIGELQNESALQHFIDAANSSDSCHLVSIPPSPQLLSDLVNQSPIGQGVVASQ
B1: the binding result in assay [1] is recorded as “binds”.

B2: Schizosaccharomyces pombe Rpn10, full-length (residues 1-243) (natural protein)
chain: MVLEATMILIDNSEWMINGDYIPTRFEAQKDTVHMIFNQKINDNPENMCGLMTIGDNSPQVLSTLTRDYGKFLSAMHDLPVRGNAKFGDGIQIAQLALKHRENKIQRQRIVAFVGSPIVEDEKNLIRLAKRMKKNNVAIDIIHIGELQNESALQHFIDAANSSDSCHLVSIPPSPQLLSDLVNQSPIGQGVVASQNQFEYGVDPNLDVELALALELSMAEERARQEVAAQKSSEETEDKKMQE
As for B2, in the assay with monoubiquitin (bovine), the dissociation constant Kd is 139 µM.

A word on the Kd: it is the constant that tells how readily two partners part at equilibrium. Read a low Kd as higher affinity.
